Results taken from patent US20080014204A1.

Molecular target: spike protein of wild-type SARS-CoV strain HKU 39849 (SARS-CoV strain HKU 39849)
Assay: cell-based or functional assay

**Q.** How did the Log (TCID50/ml) with mAb (60 µg/ml CR03-022, FRhK-4 cells) (log TCID50/ml) turn out when CR03-022 (antibody) was run?
**A.** Its Log (TCID50/ml) with mAb (60 µg/ml CR03-022, FRhK-4 cells) (log TCID50/ml) is 4.

**Q.** What about the NI (neutralization index) of the same substance?
**A.** The NI (neutralization index) was 3.3 logs.
